Our source for the Residual Binding of Y1 (% of baseline) (% of baseline) and Residual Binding of Y1 (% of baseline) (Geo Mean) (% of baseline) values is patent US20040002450A1, “Y17 - isolated molecules comprising epitopes containing sulfated moieties, antibodies to such epitopes, and uses thereof” (priority 2000, published 2004).

Non-standard residues stand in square brackets, D forms with d. No end group written: not given here. sY = N[C@@H](Cc1ccc(OS(=O)(=O)O)cc1)C(=O)O

Holding throughout (conditions): remark: other sources report otherwise
The target of assay [1] is Y1 scFv. The assay is described as follows: competition ELISA on coated glycocalicin, 0.25 µg/well Y1, peptide 200 µM.
Sequence of Y1 scFv (chain, as listed by the source): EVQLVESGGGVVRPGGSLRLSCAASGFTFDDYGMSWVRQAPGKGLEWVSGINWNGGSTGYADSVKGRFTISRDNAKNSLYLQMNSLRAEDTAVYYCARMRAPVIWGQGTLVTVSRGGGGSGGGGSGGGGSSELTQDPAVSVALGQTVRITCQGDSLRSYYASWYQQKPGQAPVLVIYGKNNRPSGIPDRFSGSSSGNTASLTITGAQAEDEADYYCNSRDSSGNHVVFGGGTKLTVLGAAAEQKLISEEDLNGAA
In assay [2] the target is Y1 scFv. The assay is described as follows: competition ELISA on coated glycocalicin, 0.25 µg/well Y1, peptide 2.5 µM.
In assay [3] the target is Y1 scFv. Put plainly: competition ELISA on coated glycocalicin, 0.25 µg/well Y1, peptide 0.5 µM.
In assay [4] the target is Y1 scFv. Put plainly: competitive FACS, 1 µg Y1-scFv on ~10^7 washed platelets, peptide 2.5 µM.
The target in assay [5] is Y1 scFv. Put plainly: competitive FACS, 1 µg Y1-scFv on ~10^7 washed platelets, peptide 200 µM.
The target of assay [6] is Y1 scFv. The assay is described as follows: competition ELISA on coated glycocalicin, 0.25 µg/well Y1, peptide 25 µM.

B1: P-1-S (peptide)
peptide: GDEGDTDL[sY]D[sY][sY]PEEDTE
On to B1, for which the Residual Binding of Y1 (% of baseline) (% of baseline) came to 0 in the assay with Y1 scFv [1], 62 with Y1 scFv [2], 89 in the assay with Y1 scFv [3] and 25 with Y1 scFv [6]. The Residual Binding of Y1 (% of baseline) (Geo Mean) (% of baseline) with Y1 scFv [4] turned out to be 41; with Y1 scFv [5], 5.
